Laboratory results taken from article PMC4273445 (eLife, 2014).
Several values for one entry are separate records, joined by “and”; a condition that tells them apart may be missing. Identical values can stand only once.

B8: CFH67, CCP domains 6 and 7 of complement factor H (domain or fragment)
chain: TLKPCDYPDIKHGGLYHENMRRPYFPVAVGKYYSYYCDEHFETPSGSYWDHIHCTQDGWSPAVPCLRKCYFPYLENGYNQNYGRKFVQGKSIDVACHPGYALPKAQTTVTCMENGWSPTPRCI
notes: source: prepared as previously described (Prosser et al., 2007)

Legend:
[1] = target: fHbp V1.1, recombinant His-tagged (Neisseria meningitidis) (UniProt Q9JXV4); assay: SPR
[2] = target: factor H binding protein (fHbp) V3.28, recombinant His-tagged (Neisseria meningitidis), E6MV22; assay: MST
[3] = target: factor H binding protein (fHbp) V3.28 (N. meningitidis), E6MV22; assay: SPR
[4] = target: T1, factor H binding protein (fHbp) V3.28, recombinant His-tagged (Neisseria meningitidis, UniProt E6MV22 20-274); assay: SPR
T1 chain: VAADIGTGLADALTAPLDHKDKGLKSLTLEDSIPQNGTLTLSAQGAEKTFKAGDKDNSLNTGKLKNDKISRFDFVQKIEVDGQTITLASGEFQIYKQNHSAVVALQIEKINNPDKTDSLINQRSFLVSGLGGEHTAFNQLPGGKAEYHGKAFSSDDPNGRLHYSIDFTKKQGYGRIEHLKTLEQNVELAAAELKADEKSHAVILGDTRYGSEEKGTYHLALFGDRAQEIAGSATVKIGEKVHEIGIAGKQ

[5] = target: T1, factor H binding protein (fHbp) V3.28, …; assay: MST
[6] = target: T2, CFHR3_(12), the first two (N-terminal) CCP domains of complement factor H-related 3 (human, UniProt Q02985 19-330); assay: SPR; conditions: both partners purified
T2 construct: also called CFHR12
T2 sequence: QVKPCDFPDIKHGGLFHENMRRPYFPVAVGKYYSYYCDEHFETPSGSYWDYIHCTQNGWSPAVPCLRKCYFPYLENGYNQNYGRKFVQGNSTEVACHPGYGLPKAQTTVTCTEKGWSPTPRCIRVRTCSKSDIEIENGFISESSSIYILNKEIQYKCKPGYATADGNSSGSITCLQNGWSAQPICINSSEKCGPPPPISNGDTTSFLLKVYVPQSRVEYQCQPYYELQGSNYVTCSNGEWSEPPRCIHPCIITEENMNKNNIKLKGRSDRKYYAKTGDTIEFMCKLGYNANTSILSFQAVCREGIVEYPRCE

[7] = target: B8; assay: SPR; conditions: both partners purified
[8] = target: T2, CFHR3_(12), the first two (N-terminal) …; assay: SPR; conditions: both partners purified; remark: listed apart in the source
[9] = target: B8; assay: SPR; conditions: both partners purified; remark: listed apart in the source
[10] = target: T3, factor H binding protein (fHbp) V1.1 (N. meningitidis, UniProt Q9JXV4 20-274); assay: SPR; conditions: both partners purified
T3 construct: fHbp variant 1.1; source: recombinant, as in Johnson et al., 2012
T3 sequence: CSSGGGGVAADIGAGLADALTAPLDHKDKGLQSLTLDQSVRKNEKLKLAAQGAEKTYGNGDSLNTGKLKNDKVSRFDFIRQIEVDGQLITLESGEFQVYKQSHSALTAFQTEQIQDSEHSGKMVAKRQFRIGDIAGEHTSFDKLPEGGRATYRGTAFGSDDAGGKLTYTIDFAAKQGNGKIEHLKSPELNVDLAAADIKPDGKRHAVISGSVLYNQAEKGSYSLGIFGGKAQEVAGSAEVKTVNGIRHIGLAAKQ

[11] = target: factor H binding protein (fHbp) V3.28 (N. meningitidis, UniProt E6MV22 20-274); assay: SPR; conditions: both partners purified

CFHR3_(12), the first two CCP domains of CFHR3 (domain or fragment)
specificity for CFH over CFHR3 (fold) [1]: 20 fold

B1: complement factor-H related 3 (CFHR3), full length, recombinant His-tagged, Q02985 19-330 (natural protein)
chain: QVKPCDFPDIKHGGLFHENMRRPYFPVAVGKYYSYYCDEHFETPSGSYWDYIHCTQNGWSPAVPCLRKCYFPYLENGYNQNYGRKFVQGNSTEVACHPGYGLPKAQTTVTCTEKGWSPTPRCIRVRTCSKSDIEIENGFISESSSIYILNKEIQYKCKPGYATADGNSSGSITCLQNGWSAQPICINSSEKCGPPPPISNGDTTSFLLKVYVPQSRVEYQCQPYYELQGSNYVTCSNGEWSEPPRCIHPCIITEENMNKNNIKLKGRSDRKYYAKTGDTIEFMCKLGYNANTSILSFQAVCREGIVEYPRCE
Kd [2]: 3 nM

B2: CFHR3_(12), the first two (N-terminal) CCP domains of complement factor H-related 3, Q02985 19-330 (domain or fragment)
chain: QVKPCDFPDIKHGGLFHENMRRPYFPVAVGKYYSYYCDEHFETPSGSYWDYIHCTQNGWSPAVPCLRKCYFPYLENGYNQNYGRKFVQGNSTEVACHPGYGLPKAQTTVTCTEKGWSPTPRCIRVRTCSKSDIEIENGFISESSSIYILNKEIQYKCKPGYATADGNSSGSITCLQNGWSAQPICINSSEKCGPPPPISNGDTTSFLLKVYVPQSRVEYQCQPYYELQGSNYVTCSNGEWSEPPRCIHPCIITEENMNKNNIKLKGRSDRKYYAKTGDTIEFMCKLGYNANTSILSFQAVCREGIVEYPRCE
Kd [3]: 4.08 nM and 4 nM and 4.25 nM

B3: CFHR3_(12), the first two CCP domains of CFHR3 (domain or fragment)
chain: KPCDFPDIKHGGLFHENMRRPYFPVAVGKYYSYYCDEHFETPSGSYWDYIHCTQNGWSPAVPCLRKCYFPYLENGYNQNYGRKFVQGNSTEVACHPGYGLPKAQTTVTCTEKGWSPTPRCIR
Kd [4]: 4 nM

B4: complement factor-H related 3 (CFHR3), full length, recombinant His-tagged (natural protein)
chain: QVKPCDFPDIKHGGLFHENMRRPYFPVAVGKYYSYYCDEHFETPSGSYWDYIHCTQNGWSPAVPCLRKCYFPYLENGYNQNYGRKFVQGNSTEVACHPGYGLPKAQTTVTCTEKGWSPTPRCIRVRTCSKSDIEIENGFISESSSIYILNKEIQYKCKPGYATADGNSSGSITCLQNGWSAQPICINSSEKCGPPPPISNGDTTSFLLKVYVPQSRVEYQCQPYYELQGSNYVTCSNGEWSEPPRCIHPCIITEENMNKNNIKLKGRSDRKYYAKTGDTIEFMCKLGYNANTSILSFQAVCREGIVEYPRCE
Kd [5]: 9 nM

B5: fHbp V2.21 Gln (at V1 Lys191) to Ala (natural protein)
chain: MGPDSDRLQQRRVAADIGAGLADALTAPLDHKDKSLQSLTLDQSVRKNEKLKLAAQGAEKTYGNGDSLNTGKLKNDKVSRFDFIRQIEVDGQLITLESGEFQIYKQDHSAVVALQIEKINNPDKIDSLINARSFLVSGLGGEHTAFNQLPSGKAEYHGKAFSSDDPNGRLHYSIDFTKKQGYGRIEHLKTPEQNVELASAELKADEKSHAVILGDTRYGSEEKGTYHLALFGDRAQEIAGSATVKIREKVHEIGIAGKQLEHHHHHH
Kd [6]: 2.85 nM | Kd [7]: 3.02 nM

B6: fHbp V2.21 Val (at V1 Val272) to Ala (natural protein)
chain: VAADIGAGLADALTAPLDHKDKSLQSLTLDQSVRKNEKLKLAAQGAEKTYGNGDSLNTGKLKNDKVSRFDFIRQIEVDGQLITLESGEFQIYKQDHSAVVALQIEKINNPDKIDSLINQRSFLVSGLGGEHTAFNQLPSGKAEYHGKAFSSDDPNGRLHYSIDFTKKQGYGRIEHLKTPEQNVELASAELKADEKSHAAILGDTRYGSEEKGTYHLALFGDRAQEIAGSATVKIREKVHEIGIAGKQ
Kd [6]: 63.5 nM

B7: fHbp V3.28 Val (at V1 Val272) to Ala (natural protein)
chain: VAADIGTGLADALTAPLDHKDKGLKSLTLEDSIPQNGTLTLSAQGAEKTFKAGDKDNSLNTGKLKNDKISRFDFVQKIEVDGQTITLASGEFQIYKQNHSAVVALQIEKINNPDKTDSLINQRSFLVSGLGGEHTAFNQLPGGKAEYHGKAFSSDDPNGRLHYSIDFTKKQGYGRIEHLKTLEQNVELAAAELKADEKSHAAILGDTRYGSEEKGTYHLALFGDRAQEIAGSATVKIGEKVHEIGIAGKQ
Kd [8]: 42 nM | Kd [9]: 25.3 nM

B8
Kd [10]: 3.56 nM | Kd [11]: 2.74 nM and 2.46 nM and 3.17 nM
